Data on one molecule can be found in PMC3496974 (MicrobiologyOpen, 2012).

One series addresses T1, PanZ(N45A)-His (E. coli, UniProt P37613 1-127, N45A).
T1 sequence: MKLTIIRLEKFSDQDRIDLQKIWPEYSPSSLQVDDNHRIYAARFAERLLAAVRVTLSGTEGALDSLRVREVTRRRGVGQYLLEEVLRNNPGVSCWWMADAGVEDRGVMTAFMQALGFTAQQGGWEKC
The experiment in a line: SEC. A general note: In gel filtration, larger molecules generally elute earlier.

The series “SEC” deals with the molecule itself. The experiment in a line: SEC.

B1: PanD, unactivated proenzyme (native, untagged) (enzyme, E. coli, UniProt P0A790 1-126, looked up)
chain: MIRTMLQGKLHRVKVTHADLHYEGSCAIDQDFLDAAGILENEAIDIWNVTNGKRFSTYAIAAERGSRIISVNGAAAHCASVGDIVIIASFVTMPDEEARTWRPNVAYFEGDNEMKRTAKAIPVQVA
For B1, in the series with PanZ(N45A)-His, the binding result is “binds”. The stoichiometry N – broadly, a count of units in the complex or per binding partner – in the series “SEC” was found to be 4.
